Here are results for 2 molecules from patent publication US20140018302A1 (SALK INSTITUTE FOR BIOLOGICAL STUDIES INTELLECTUAL PROPERTY …, published 2014).

Assay [1] addresses T1, recombinant full-length HDMX (UniProt O15151 1-490).
T1 construct: mature; Full-length protein after TEV cleavage of the tags; also called HDM4
T1 sequence (looked up): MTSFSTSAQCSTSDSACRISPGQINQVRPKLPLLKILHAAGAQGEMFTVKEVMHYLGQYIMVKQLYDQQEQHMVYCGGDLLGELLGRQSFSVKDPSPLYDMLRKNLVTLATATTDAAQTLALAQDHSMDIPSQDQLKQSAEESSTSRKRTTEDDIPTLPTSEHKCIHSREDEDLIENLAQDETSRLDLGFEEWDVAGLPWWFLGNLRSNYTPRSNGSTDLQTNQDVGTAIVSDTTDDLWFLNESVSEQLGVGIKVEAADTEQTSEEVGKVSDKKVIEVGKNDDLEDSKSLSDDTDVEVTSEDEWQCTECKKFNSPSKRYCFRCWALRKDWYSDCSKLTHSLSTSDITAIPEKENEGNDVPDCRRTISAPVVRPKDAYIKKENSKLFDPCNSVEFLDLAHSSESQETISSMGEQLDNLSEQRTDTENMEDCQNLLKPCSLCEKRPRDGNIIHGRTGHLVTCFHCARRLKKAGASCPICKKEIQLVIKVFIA
The assay can be described thus: fluorescence polarization, 25 nM FITC-peptide. Here is the method:
Fluorescence polarization was then measured at equilibrium on a SpectraMax M5 microplate reader (Molecular Devices).
Background: Fluorescence polarisation rises when a labelled molecule tumbles more slowly, as on binding a larger partner.

In assay [2] the target is T2, native HDM2 (intracellular, in SJSA-X cells) (UniProt Q00987 1-491, limits assumed).
T2 construct: mature; Cellular protein in the anti-FITC pull-down; also called intracellular HDM2
The assay is described as follows: anti-FITC pull-down from SJSA-X cells, HDM2 western.

Assay [3] has as its target T3, native HDMX (intracellular, in SJSA-X, JEG-3 and MCF-7 cells) (UniProt O15151 1-490).
T3 construct: mature; Cellular protein in co-immunoprecipitation experiments; In SJSA-X cells it is overexpressed by engineering; also called intracellular HDMX
T3 sequence (looked up): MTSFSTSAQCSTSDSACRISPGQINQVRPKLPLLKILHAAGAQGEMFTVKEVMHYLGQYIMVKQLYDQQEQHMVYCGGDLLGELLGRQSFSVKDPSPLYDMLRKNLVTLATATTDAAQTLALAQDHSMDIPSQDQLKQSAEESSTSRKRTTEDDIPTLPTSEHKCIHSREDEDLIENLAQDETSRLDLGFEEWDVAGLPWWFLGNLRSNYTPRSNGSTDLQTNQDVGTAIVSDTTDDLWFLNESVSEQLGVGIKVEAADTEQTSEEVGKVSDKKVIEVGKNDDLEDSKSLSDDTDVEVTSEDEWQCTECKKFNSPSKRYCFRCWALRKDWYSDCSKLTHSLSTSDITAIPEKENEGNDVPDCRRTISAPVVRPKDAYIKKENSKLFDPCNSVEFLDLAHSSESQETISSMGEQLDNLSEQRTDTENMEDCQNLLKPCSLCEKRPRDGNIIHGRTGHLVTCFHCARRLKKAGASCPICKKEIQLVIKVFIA
The assay is described as follows: anti-FITC pull-down from SJSA-X cells, HDMX western.

Positions of bridges follow the written chain, without caps; N, C: chain ends. Non-standard residues stand in square brackets, D forms with d. No end group written: not given here. *: point of attachment. FITC = O=C1OC2(c3ccc(O)cc3Oc3cc(O)ccc32)c2ccc(NC(=S)*)cc21; R8 = C=CCCCCCC[C@@](C)(N)C(=O)O; S5 = C=CCCC[C@](C)(N)C(=O)O

T2 sequence (Q00987 whole entry): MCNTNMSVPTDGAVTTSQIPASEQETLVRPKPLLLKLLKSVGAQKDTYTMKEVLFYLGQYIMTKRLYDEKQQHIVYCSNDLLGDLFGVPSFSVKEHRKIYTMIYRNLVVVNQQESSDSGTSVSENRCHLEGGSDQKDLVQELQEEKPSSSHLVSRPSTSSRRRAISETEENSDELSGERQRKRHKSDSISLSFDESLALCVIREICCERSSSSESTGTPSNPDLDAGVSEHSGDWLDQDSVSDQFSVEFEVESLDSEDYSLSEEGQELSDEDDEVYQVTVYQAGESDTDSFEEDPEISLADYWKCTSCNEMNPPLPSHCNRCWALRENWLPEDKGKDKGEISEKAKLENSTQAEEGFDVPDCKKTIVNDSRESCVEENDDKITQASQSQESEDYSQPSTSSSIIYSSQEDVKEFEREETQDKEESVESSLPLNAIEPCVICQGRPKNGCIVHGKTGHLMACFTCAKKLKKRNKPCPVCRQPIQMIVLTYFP

B1: FITC-WT-p53 14-29 (peptide)
peptide: {FITC}-LSQETFSDLWKLLPEN
notes: Unstapled wild-type peptide, FITC-labeled in the FP assay; also called wild type p53 peptide
Regarding B1, the binding result in assay [1] is recorded as “no binding (tested: 25 pM-100 nM protein)”.

B2: SAH-p53-8F19A (peptide)
peptide: QSQQTA[R8]NLWRLL[S5]QN
modifications: staple 7-14; not fully specified (N-terminus, C-terminus); also: N-terminal FITC in binding assays
notes: also called FITC-SAH-p53-8F19A
B2: the binding result is reported as “no binding (tested: 25 pM-100 nM protein)” in assay [1], “no binding (tested: 15 uM peptide on cells)” in assay [2] and “no binding (tested: 15 uM peptide on cells)” in assay [3].
